Experimental findings from patent US20250215100A1 are described below.

This assay addresses human CD40 on cells (human) (UniProt P25942). Nature of the assay: FACS, inhibition of human CD40L-his binding to CHO-K1/hCD40 cells.

human CD40 on cells (human), sequence (P25942 21-277): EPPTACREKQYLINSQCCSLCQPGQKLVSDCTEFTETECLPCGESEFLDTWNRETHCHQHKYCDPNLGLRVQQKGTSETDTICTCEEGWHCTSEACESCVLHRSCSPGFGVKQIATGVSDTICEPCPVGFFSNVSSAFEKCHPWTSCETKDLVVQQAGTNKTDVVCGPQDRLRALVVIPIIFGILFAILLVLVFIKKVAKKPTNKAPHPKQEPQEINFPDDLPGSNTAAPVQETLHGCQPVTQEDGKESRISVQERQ

Substance hIgG1 (antibody) yielded a Maximum inhibition rate (%) of 2.3%.
